Data on 46 molecules can be found in patent US20260274955A1 (JANUX THERAPEUTICS, published 2026).

In assay [1] the target is T1, Anti-CD28 Fab (SEQ ID NOs: 202, 203).
T1 construct: biotinylated and captured on neutravidin coated plates in the phage ELISA
As to the kind of experiment: phage ELISA, Fab on plate.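 Also: crude clonal phage supernatants added to wells pretreated with blocking buffer with or without CD28 antigen, then bound phage read out via HRP-linked anti-M13 antibody.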 For orientation: An ELISA detects its analyte on a solid surface through an enzyme-linked reagent.
T1 sequence (VH, as listed by the source, chain 1 of 2): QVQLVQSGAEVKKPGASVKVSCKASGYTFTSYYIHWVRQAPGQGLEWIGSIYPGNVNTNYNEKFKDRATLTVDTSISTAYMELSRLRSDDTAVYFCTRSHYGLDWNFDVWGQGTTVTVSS
T1 sequence (VL, as listed by the source, chain 2 of 2): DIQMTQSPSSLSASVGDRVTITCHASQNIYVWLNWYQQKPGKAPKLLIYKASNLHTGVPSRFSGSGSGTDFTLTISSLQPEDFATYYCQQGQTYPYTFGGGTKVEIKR
Experimental: (§1) After panning, phage infected bacteria were plated out and colonies picked into 96 well blocks. Clonal phage was then amplified and separated from bacterial cells via centrifugation.
(§2) Clonal phage were harvested as crude supernatants and screened via standard ELISAs. […] Prior to the addition of clonal phage, wells were incubated with blocking buffer and CD28 antigen or blocking buffer alone. Without washing or aspirating, clonal phage supernatants were then added to the wells and incubated for a short time. Wells were then washed followed by detection of bound phage using a horse radish conjugated anti-M13 antibody. Clonal phage of interest were then sent for sequence analysis.

Assay [2] has the same target. As to the kind of experiment: phage ELISA, Fab on plate, CD28 antigen as competitor.
Target sequence in this assay (VH, as listed by the source, chain 1 of 2): as the sequence (VH, as listed by the source, chain 1 of 2) above
Target sequence in this assay (VL, as listed by the source, chain 2 of 2): as the sequence (VL, as listed by the source, chain 2 of 2) above
Experimental: as §1, §2
In assay [3] the target is Anti-CD28 Fab (SEQ ID NOs: 202, 203). As to the kind of experiment: phage binding ELISA on captured Fab.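 Also: clonal phage supernatants added briefly to wells pre-incubated with CD28 antigen or with blocking buffer only, then washed, bound phage read by ELISA using HRP-coupled anti-M13 antibody.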
Target sequence in this assay (VH, as listed by the source, chain 1 of 2): as the sequence (VH, as listed by the source, chain 1 of 2) above
Target sequence in this assay (VL, as listed by the source, chain 2 of 2): as the sequence (VL, as listed by the source, chain 2 of 2) above
Experimental: Clonal phage were harvested as crude supernatants and screened via standard ELISAs. […] Prior to the addition of clonal phage, wells were incubated with blocking buffer and CD28 antigen or blocking buffer alone. Without washing or aspirating, clonal phage supernatants were then added to the wells and incubated for a short time. Wells were then washed followed by detection of bound phage using a horse radish conjugated anti-M13 antibody.

On to YCDGHSQEYMSKCL [Phage-699], for which the “Anti-CD28 Fab (SEQ ID NOs: 202, 203) signal” value in assay [1] is 1.21. Moreover, the “Anti-CD28 Fab signal in the presence of CD28” value (“Anti-CD28 Fab signal … of CD28” for short) in assay [2] worked out at 0.06.

In the case of YCDGHSMMYMQKCL [Phage-695], in assay [1], the “Anti-CD28 Fab (SEQ ID NOs: 202, 203) signal” value is 1.23. The “Anti-CD28 Fab signal … of CD28” value in assay [2] came out at 0.06. On to YCAGHSSEYIGKCL [Phage-710], for which the “Anti-CD28 Fab (SEQ ID NOs: 202, 203) signal” value in assay [1] worked out at 1.17. In addition, the “Anti-CD28 Fab signal … of CD28” value in assay [2] came out at 0.06. For YCDGHRPEYMSKCL [Phage-706] the same measures were 1.18 and 0.07. On to YCEGHIPAYMAKCL [Phage-746], for which the “Anti-CD28 Fab (SEQ ID NOs: 202, 203) signal” value in assay [1] was 1.06. Besides, in assay [2], the “Anti-CD28 Fab signal … of CD28” value came to 0.08. Take YCEGHLPQYMSKCL [Phage-719]: in assay [1], the “Anti-CD28 Fab (SEQ ID NOs: 202, 203) signal” value came to 1.15. For the same molecule, the “Anti-CD28 Fab signal … of CD28” value in assay [2] was 0.09.

Take YCEGHLWEYLAKCL [Phage-734]: the “Anti-CD28 Fab (SEQ ID NOs: 202, 203) signal” value in assay [1] amounted to 1.1. For the same molecule, the “Anti-CD28 Fab signal … of CD28” value in assay [2] amounted to 0.05. In the case of YCEGHAAEYLWKCL [Phage-705], the “Anti-CD28 Fab (SEQ ID NOs: 202, 203) signal” value in assay [1] amounted to 1.18. Besides, the “Anti-CD28 Fab signal … of CD28” value in assay [2] was 0.09. With YCEGHMGEYMLKCL [Phage-735], the “Anti-CD28 Fab (SEQ ID NOs: 202, 203) signal” value in assay [1] came to 1.1. Besides, the “Anti-CD28 Fab signal … of CD28” value in assay [2] was determined as 0.06.

As for YCEGHMSIYMQKCL [Phage-683], in assay [1], the “Anti-CD28 Fab (SEQ ID NOs: 202, 203) signal” value came out at 1.25. For the same molecule, in assay [2], the “Anti-CD28 Fab signal … of CD28” value was found to be 0.07.

Regarding YCEGHIPMYMLKCM [Phage-743], the “Anti-CD28 Fab (SEQ ID NOs: 202, 203) signal” value in assay [1] is 1.06. Besides, in assay [2], the “Anti-CD28 Fab signal … of CD28” value was determined as 0.09.

Regarding YWSCFQIPFTCFYF [Phage-1], the “Anti-CD28 Fab signal” value in assay [3] was 1.44. Regarding YCAGHAEEYMLKCL [Phage-737], the “Anti-CD28 Fab (SEQ ID NOs: 202, 203) signal” value in assay [1] came out at 1.09. Moreover, the “Anti-CD28 Fab signal … of CD28” value in assay [2] is 0.07. For the molecule YCDGHVEEYMTKCL [Phage-691], in assay [1], the “Anti-CD28 Fab (SEQ ID NOs: 202, 203) signal” value came out at 1.24. Also, in assay [2], the “Anti-CD28 Fab signal … of CD28” value turned out to be 0.07. Take YCEGHRAEYMSKCL [Phage-716]: the “Anti-CD28 Fab (SEQ ID NOs: 202, 203) signal” value in assay [1] came to 1.16. Further, in assay [2], the “Anti-CD28 Fab signal … of CD28” value was determined as 0.09. In the case of YCDGHSWEYLGKCL [Phage-703], the “Anti-CD28 Fab (SEQ ID NOs: 202, 203) signal” value in assay [1] amounted to 1.2. The “Anti-CD28 Fab signal … of CD28” value in assay [2] was 0.05. With YCDGHLSVYMSKCL [Phage-718], in assay [1], the “Anti-CD28 Fab (SEQ ID NOs: 202, 203) signal” value is 1.15. The “Anti-CD28 Fab signal … of CD28” value in assay [2] stood at 0.07. Consider YCDGHSEQYMAKCL [Phage-687], for which the “Anti-CD28 Fab (SEQ ID NOs: 202, 203) signal” value in assay [1] stood at 1.24. Moreover, the “Anti-CD28 Fab signal … of CD28” value in assay [2] amounted to 0.06. The corresponding values for YCDGHAMEYMEKCL [Phage-733] are 1.11 and 0.08.

YCEGHLQEHMAKCL [Phage-684]: the “Anti-CD28 Fab (SEQ ID NOs: 202, 203) signal” value in assay [1] is 1.25. Also, in assay [2], the “Anti-CD28 Fab signal … of CD28” value worked out at 0.05. For the molecule YCAGHAWQYINKCL [Phage-13], in assay [3], the “Anti-CD28 Fab signal” value amounted to 0.64. As for YCEGHAGVYMAKCL [Phage-708], the “Anti-CD28 Fab (SEQ ID NOs: 202, 203) signal” value in assay [1] is 1.17. For the same molecule, the “Anti-CD28 Fab signal … of CD28” value in assay [2] came to 0.05. For YCDGHSWIYMVKCL [Phage-717] the same measures were 1.16 and 0.06. YCEGHLKEYMQKCL [Phage-714]: the “Anti-CD28 Fab (SEQ ID NOs: 202, 203) signal” value in assay [1] was 1.17. Also, in assay [2], the “Anti-CD28 Fab signal … of CD28” value worked out at 0.07.

As for YCEGHSAEHMPKCL [Phage-696], in assay [1], the “Anti-CD28 Fab (SEQ ID NOs: 202, 203) signal” value was 1.23. Further, the “Anti-CD28 Fab signal … of CD28” value in assay [2] came to 0.09. Regarding YCEGHAEQYMEKCL [Phage-713], in assay [1], the “Anti-CD28 Fab (SEQ ID NOs: 202, 203) signal” value came to 1.17. In assay [2], the “Anti-CD28 Fab signal … of CD28” value is 0.08. Take YCEGHTQEYMQKCL [Phage-688]: the “Anti-CD28 Fab (SEQ ID NOs: 202, 203) signal” value in assay [1] was 1.24. In addition, the “Anti-CD28 Fab signal … of CD28” value in assay [2] came to 0.07.

For the molecule YCEGHLWEYMKKCL [Phage-748], the “Anti-CD28 Fab (SEQ ID NOs: 202, 203) signal” value in assay [1] is 1.06. The “Anti-CD28 Fab signal … of CD28” value in assay [2] is 0.07. Turning to YCEGHMPEYLAKCL [Phage-707], the “Anti-CD28 Fab (SEQ ID NOs: 202, 203) signal” value in assay [1] came out at 1.18. In addition, the “Anti-CD28 Fab signal … of CD28” value in assay [2] amounted to 0.07.

As for YCDGHSFHYMAKCL [Phage-740], the “Anti-CD28 Fab (SEQ ID NOs: 202, 203) signal” value in assay [1] was determined as 1.08. Also, the “Anti-CD28 Fab signal … of CD28” value in assay [2] worked out at 0.06. Consider YCDGHLEQYMLKCL [Phage-692], for which the “Anti-CD28 Fab (SEQ ID NOs: 202, 203) signal” value in assay [1] was 1.24. Moreover, in assay [2], the “Anti-CD28 Fab signal … of CD28” value turned out to be 0.09. Take YCEGHIGIYMSKCL [Phage-693]: the “Anti-CD28 Fab (SEQ ID NOs: 202, 203) signal” value in assay [1] came out at 1.23. Also, the “Anti-CD28 Fab signal … of CD28” value in assay [2] is 0.07. Regarding YCHGHLPQYMSKCM [Phage-700], the “Anti-CD28 Fab (SEQ ID NOs: 202, 203) signal” value in assay [1] was found to be 1.21. Also, the “Anti-CD28 Fab signal … of CD28” value in assay [2] stood at 0.06. The corresponding values for YCVGHLPEYMLECM [Phage-739] are 1.08 and 0.07. In the case of YCAGHLDIYLAKCL [Phage-701], the “Anti-CD28 Fab (SEQ ID NOs: 202, 203) signal” value in assay [1] was 1.21. The “Anti-CD28 Fab signal … of CD28” value in assay [2] was determined as 0.07. YCDGHAKVYIWKCL [Phage-745]: the “Anti-CD28 Fab (SEQ ID NOs: 202, 203) signal” value in assay [1] came to 1.06. Also, the “Anti-CD28 Fab signal … of CD28” value in assay [2] came to 0.08. In the case of YCVGHYPEYMEKCL [Phage-697], in assay [1], the “Anti-CD28 Fab (SEQ ID NOs: 202, 203) signal” value is 1.22. Also, the “Anti-CD28 Fab signal … of CD28” value in assay [2] turned out to be 0.07. The corresponding values for YCAGHAPEYISKCL [Phage-702] are 1.21 and 0.07. As to YCEGHLAEYMNKCL [Phage-690], the “Anti-CD28 Fab (SEQ ID NOs: 202, 203) signal” value in assay [1] worked out at 1.24. In assay [2], the “Anti-CD28 Fab signal … of CD28” value worked out at 0.07.

As to YCDGHANAYIWKCL [Phage-742], the “Anti-CD28 Fab (SEQ ID NOs: 202, 203) signal” value in assay [1] was determined as 1.07. Also, the “Anti-CD28 Fab signal … of CD28” value in assay [2] worked out at 0.09. As to YCDGHAPIYMQKCL [Phage-747], the “Anti-CD28 Fab (SEQ ID NOs: 202, 203) signal” value in assay [1] was found to be 1.06. In assay [2], the “Anti-CD28 Fab signal … of CD28” value was 0.06. Regarding YCEGHAQEYMAKCL [Phage-744], in assay [1], the “Anti-CD28 Fab (SEQ ID NOs: 202, 203) signal” value was 1.06. Besides, the “Anti-CD28 Fab signal … of CD28” value in assay [2] was found to be 0.08.

Take YCAGLFEEYMSKCL [Phage-685]: the “Anti-CD28 Fab (SEQ ID NOs: 202, 203) signal” value in assay [1] was 1.25. Further, the “Anti-CD28 Fab signal … of CD28” value in assay [2] worked out at 0.06. For YCDGHEARYMQKCL [Phage-698] the same measures were 1.21 and 0.07. Turning to YCEGHSEMYMSKCL [Phage-741], the “Anti-CD28 Fab (SEQ ID NOs: 202, 203) signal” value in assay [1] turned out to be 1.07. In addition, in assay [2], the “Anti-CD28 Fab signal … of CD28” value is 0.09. Take YCEGHSTEYIQKCL [Phage-694]: the “Anti-CD28 Fab (SEQ ID NOs: 202, 203) signal” value in assay [1] turned out to be 1.23. Also, the “Anti-CD28 Fab signal … of CD28” value in assay [2] was 0.09.
